Variants at the floor of the assay were thinned out.
B1: TPR 5TU (parent)
chain: GGAUCUUCUCGAUCUAACAAAAAAGACAAAUCUGCCACAAAGCUUGAGAGCAUCUUCGGAUGCAGAGGCGGCAGCCUUCGGUGGCGCGAUAGCGCCAACGUUCUCAACUAUGACACGCAAAACGCGUGCUCCGUUGAAUGGAGUUUAUCAUG

Variants of: B1
Experiment: polymerase ribozyme fitness, log enrichment relative to wild type (log ratio); higher = more active; in vitro selection for triplet polymerase activity
Outline: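 The heterodimeric triplet polymerase ribozyme's subunits were each mutagenized into PCR-built libraries and transcribed. Every library was selected once, in triplicate, by annealing with a biotinylated primer, the partner subunit and triplets, incubating frozen at −7 °C, gel-excising extended constructs, capturing on streptavidin beads and running RT-PCR. Input and output libraries were Illumina-sequenced, with genotypes kept only at ≥10 input reads and ≥1 read per output. Fitness, from inverse-variance-weighted replicate averages, is the base-2 logarithm of genotype enrichment over wild-type enrichment.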

Variant	polymerase ribozyme fitness (log ratio)
A22G A47C U55A U61A G92C A142U	≤ -4.2
A21G C27U C38A C93G U101A U146C	≤ -4.2
A22G A23C G83A	≤ -4.2
A22U C54U A107U U134C U145C	-4.02
A22C A89G C95A C103A G124U	-4
A21G U55G C79G G94A C99A	≤ -4.2
A21C C43A U45G G48C A73G G86U C96G A97C G140U	≤ -4.2
A22C C51U U56A G92U G100C U101G C103G G143U G152A	≤ -4.2
A21G G84A A137C	-3.28
A21G A24U G50A C57A C87G C93G A110U A121U	-4.06
A22U C87G U104A C105A	≤ -4.2
A21U G50C U53A	-3.62
A22U C35A G65A C69A C116U G117C	-3.86
A21C C51U G59C G140A A142U	≤ -4.2
A21G G59C U102G G124A	-3.04
A21G C27G A29C A73C G74U C75G C85U G88A	≤ -4.2
A22U A91G	-3.05
A20U G88C	-3.85
A22U A24U G141U	1.41
A21U U56A	-0.173
A22G C123A A147U	1.6
A22C G42U A47G C76G A91G A106U A110G	≤ -4.2
A21U U33G G59C C72G A89C C96A A115C U146C	≤ -4.2
A21C C27U C35U G68A C96A A147G	≤ -4.2

Variant	polymerase ribozyme fitness (log ratio)
A20U G92U U104G	-1.82
A22G A89C	-0.303
A22G C32G A40C G84A	-4.13
A22U A49G A60G G83U G84U	-3.24
A21U C54A A142G	-2.81
A22G C54U C85U C103U C132U A147C	-3.75
A22U A28U C38G C51U G83C	≤ -4.2
A21C C85G C114U	-3.13
A22C C51U U55G G67A G84C A115U G140C	≤ -4.2
A21G C54U C96G C129A	-3.17
A22C C96U	-0.0389
A22G C35A A107C	≤ -4.2
A22G A29U G88A G117U G140A	≤ -4.2
A22C G58A C72A C87G C125G G126U	≤ -4.2
A22G G86U	-0.647
A21U C93U	-0.752
A22C A40C C63G	0.514
A22U A26G C36A G42U C96G G128U C132G U144G	≤ -4.2
A21G A49C G84A G92U A97U A138G	≤ -4.2
A21U A24G U61A G81U	≤ -4.2
A20U U77G C96U C99U	≤ -4.2
A22G U109G	-0.357
A21U A26U A29G C35A G86U	-4.04
A21U C116U	0.00754

Variant	polymerase ribozyme fitness (log ratio)
A21C A41U C85U C95U	-1.34
A20U C54G G70C C79G G92U A107U	≤ -4.2
A21U C27G C36A G117C	-4.02
A21U C38G G84A G136C	-3.78
A22U C105U G136C	-2.55
A20U G84U A98G	-4.1
A21G A29C G88A G92C C96G U102G A107U	≤ -4.2
A22C G65A U104G A107C U127G	≤ -4.2
A22G G59C G62C C63U C87G A89U A120C G143C	-3.94
A21G U56G G80U G88A C105G A120U C149U	≤ -4.2
A22G G84U	-2.74
A22U C38U A73U C96U	0.145
A22C A60U A66U C93U G100C A138G C149A	≤ -4.2
A21U A29G C32A A64U G68U G84U A121U	≤ -4.2
A21G G74A A89U G92U	-3.57
A21G C75U A120G	0.879
A22U C43A G86A U90A	≤ -4.2
A21C C36U C57A C95U A97G A98U C125U	-3.21
A20U A73G U104G A115G	≤ -4.2
A20U G25C G50C C118U	≤ -4.2
A21G A49C C93G C96U	≤ -4.2
A22G A37C G50C A64G G65C G88A A110G	≤ -4.2
A21U C38U U135C	-3.08
A20U G133C	-3.79

Variant	polymerase ribozyme fitness (log ratio)
A22C A60G C96G C114A C131G	≤ -4.2
A21U U33G U61C G62A A66C C72A G80C C85U A107G	≤ -4.2
A21G G46U U55A U151G	≤ -4.2
A22G C85U C114A U139G	-3.14
A22U A98G	-0.232
A20U C32U U77G A142U	≤ -4.2
A22G A40G G42C C79A G94C	≤ -4.2
A22G U55A G83U C129A	-3.65
A22U G25U C35U C76G G126U U135A	≤ -4.2
A22G U53A A66G C72G U90C U145G	≤ -4.2
A22G C38G C96U A110U U111A	≤ -4.2
A22C G46A C76U	≤ -4.2
A21U A22U G46A G48C U56A G70C G83U G124A	≤ -4.2
A20U C43U C96U C114U G141C	≤ -4.2
A22C C85G A150G	-2.71
A20U C38U C85A G86U	≤ -4.2
A21G G25C G34A G71U G100C A107U U109C A121U A150U	≤ -4.2
A21U A30U U33A C54G C87G	≤ -4.2
A21G G124C	-0.489
A21U U55A C63U C85U	0.519
A22U A37C C96U A142C	-1.63
A21U A26U A40U	-3.62
A22U A47C U55G G84U C125G	-3.06
A21G U31G C38U A73C C87A C96U	≤ -4.2

Variant	polymerase ribozyme fitness (log ratio)
A22G G92C	0.21
A21G A26G C38G C72U C87G A89U A150G	≤ -4.2
A21C C87A	-4.15
A21U G83A	-1.45
A22U C93U	-1.47
A21U C57G C93A	-2.34
A22U A30C C32A A60C C85G G86A A89U A110G U135G U144G	≤ -4.2
A21U C32U A52G C85A	-4.08
A21G G25U U56A C85U G94U C123U	-2.71
A22U A49U U55A G84U G100U C108U	≤ -4.2
A20U C27U G46C C95U	-3.76
A20U C51U C79A C93A A97U U148G	≤ -4.2
A22U A39C G59C G143A	-4.09
A22U C85G	-1.73
A22U A47U C51U C95A C99U	-1.72
A21U A29C A89C U130C G140U G141A	≤ -4.2
A21C U56G G62C U101G	-3.54
A22C C79A G83U A115G G141A	≤ -4.2
A22G U82A G83A C105U	0.185
A21G C69G U82A C87U	-1.28
A22C C95U A138U	≤ -4.2
A22G C85A G143C	-2.92
A20U G58A G81A	-0.836
A21C A39U C95G A113U C149U A150G	≤ -4.2

Variant	polymerase ribozyme fitness (log ratio)
A20U G50U C76A G92C A110G C118G A137U	≤ -4.2
A20U C93U	-1.76
A21C C57A C93G C99G C118U U139A U144A A150C	≤ -4.2
A21C G136A	0.615
A22C C76A C85A C93U C132A A142U	≤ -4.2
A22G C87U	-0.258
A21C G94A U148A	-3.72
A22U C75G C76U G94C A110U A147U	≤ -4.2
A22C A98G	-0.486
A21G C54A	-0.617
A20U U53G C72G C95G C108U C118A	≤ -4.2
A21C C57U C87G G126C A137C	≤ -4.2
A22U C35A A41C U53G C87U A97C C108U U151A	≤ -4.2
A20U G84A G124A A147G	-2.53
A20U C85A G94C A121C	-0.745
A21G C36G U53C	-3.97
A21G A52G C85U U104G	-0.132
A21U G50A C63U C75U A97U	-1.25
A22C A52C	-1.04
A21C G83U C116G	-0.153
A21U C108U	-3.78
A21G A22G A47C C51A G74C C75U U102G C132G G143C	≤ -4.2
A20U U31C C116U A121U A150C	-3.57
A21C C27G A64C C85A	≤ -4.2

Variant	polymerase ribozyme fitness (log ratio)
A22C A37U G48C C87U G124A U134C	-4.18
A22C A30G A60G G68A C85A A91C G126A	≤ -4.2
A21C C87U A89C A98G G112U	≤ -4.2
A21C A24C A52C C79A C93U A150U G152C	≤ -4.2
A22G C95U A119G	0.832
A22U C54A G59C A122C G141A	-0.175
A22C A28U G88U	≤ -4.2
A22C C27U U127C	-3.95
A21C G59C A98G C125G G136A U146G	-1.19
A22U A28U A37U G42C C54A C103A	≤ -4.2
A21C A47C C96A G133C	-1.54
A20U G46U A98G C99U	-3.31
A21G C32U G84U A115U U144C	≤ -4.2
A22C G83U A115G	-1.96
A21U C35U U56A C96A A142U	-2.21
A22U C38U U53A G74C U90C A120U	≤ -4.2
A22C C54A G94A A98U	-1.82
A21C A89U U104A	-0.361
A20U G84U C108U	≤ -4.2
A21C C57G C75A A98G A107U C123U A142U G143C	≤ -4.2
A21G A30G C125U G133C	≤ -4.2
A21C U53A C54G C76G C103G G133U	≤ -4.2
A20U G67A	-3.89
